According to publication PMC4742278, “BS69/ZMYND11 C-Terminal Domains Bind and Inhibit EBNA2” (PLoS Pathogens, 2016):

Assays:
[1] = biological target: EBNA2 fragment residues 381–445 (EBNA2_(381–445)) (Epstein-Barr virus, strain B95-8) (UniProt P12978); assay: ITC
[2] = biological target: BS69/ZMYND11 coiled-coil-MYND tandem domains (BS69_(CC-MYND), residues 440–562) (mouse); assay: ITC; peptide (~1 mM) titrated into BS69_(MYND) or BS69_(CC-MYND) (~0.1 mM) at 5°C; 20 mM Tris-HCl pH 7.5, 100 mM NaCl, 2 mM DTT; one-site fitting model
[3] = biological target: BS69 MYND domain (BS69_(MYND), residues 516–562) (mouse); assay: as above
[4] = biological target: BS69_(MYND) Y532A (mouse); assay: as above
[5] = biological target: BS69_(MYND) R560A (mouse); assay: as above
[6] = biological target: flag-tagged BS69_(CC-MYND) Q546A (mouse); assay: co-IP
[7] = biological target: flag-tagged BS69_(CC-MYND) Q546A/W550A (mouse); assay: co-IP
[8] = biological target: EBNA2 PXLXP2 mutant (Epstein-Barr virus, strain W91) (UniProt P12978)
[9] = biological target: Epstein-Barr virus nuclear antigen 2 (EBNA2), expressed from a plasmid (Epstein-Barr virus, strain W91) (UniProt P12978)

BS69/ZMYND11 coiled-coil-MYND tandem domains (BS69_(CC-MYND), residues 440–562) (domain or fragment)
Kd [1]: 0.24 µM

EBNA2_(381–389) peptide with an additional Gly-Tyr dipeptide at the C-terminus (NH2-[…]-CONH2)
Kd [2]: 7.4 µM
Kd [3]: 25.6 µM
fold decrease of binding against wild-type BS69 (MYND) [4]: 3 fold
fold decrease of binding against wild-type BS69 (MYND) [5]: 10 fold

Epstein-Barr virus nuclear antigen 2 (EBNA2), expressed from a plasmid (from UniProt P12978 1-487) (natural protein)
percent reduction of EBNA2 binding against wild type [6]: 50%
percent reduction of EBNA2 binding against wild type [7]: 85%

flag-tagged wild-type BS69_(CC-MYND) (domain or fragment)
BS69 inhibition of the LMP1-Luc reporter activated by the EBNA2 PXLXP2 mutant [8]: 50%
EBNA2 activation of the LMP1-Luc or Cp-Luc reporter in BJAB cells in the presence of wild-type BS69 (CC-MYND) (around 10-fold without BS69) [9]: < 2 fold
